These are literature values, as cited in publication PMC5689411.

This data set has as its target RNR beta2 (Escherichia coli) (UniProt P69924). The data set is described as follows: competitive inhibition assay.
Sequence of UniProt P69924 (P69924 2-376): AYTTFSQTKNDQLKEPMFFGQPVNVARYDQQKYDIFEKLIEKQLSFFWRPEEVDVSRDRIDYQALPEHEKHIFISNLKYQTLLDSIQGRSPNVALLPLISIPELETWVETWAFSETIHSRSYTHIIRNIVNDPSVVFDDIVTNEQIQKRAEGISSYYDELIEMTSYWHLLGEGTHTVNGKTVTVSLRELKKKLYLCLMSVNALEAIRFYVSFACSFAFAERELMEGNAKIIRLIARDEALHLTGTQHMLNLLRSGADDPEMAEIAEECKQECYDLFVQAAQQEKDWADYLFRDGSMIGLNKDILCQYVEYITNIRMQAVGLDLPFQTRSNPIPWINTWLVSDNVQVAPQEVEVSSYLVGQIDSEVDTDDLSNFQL

Broadly, the Kd is the equilibrium constant for the complex coming apart. For RNR alpha2 (from UniProt P00452), the Kd is 180 nM.
